Results on one molecule are retold here after publication PMC5647543, “The Two-State Prehensile Tail of the Antibacterial Toxin Colicin N” (Biophysical Journal, 2017).

For this test, the target named is T1, ColN_(90–387) (ColN-RP), receptor binding and pore forming domains of colicin N (Escherichia coli, UniProt P08083 90-387).
T1 construct: In PDB 1A87 the first resolved residue is S91; source: purified as previously described (20, 26); 15N-labelled protein from bacteria grown in M9 minimal medium with 15NH4Cl; not shown: His6 (-SSHHHHHH), C-terminal, kept
T1 sequence (looked up): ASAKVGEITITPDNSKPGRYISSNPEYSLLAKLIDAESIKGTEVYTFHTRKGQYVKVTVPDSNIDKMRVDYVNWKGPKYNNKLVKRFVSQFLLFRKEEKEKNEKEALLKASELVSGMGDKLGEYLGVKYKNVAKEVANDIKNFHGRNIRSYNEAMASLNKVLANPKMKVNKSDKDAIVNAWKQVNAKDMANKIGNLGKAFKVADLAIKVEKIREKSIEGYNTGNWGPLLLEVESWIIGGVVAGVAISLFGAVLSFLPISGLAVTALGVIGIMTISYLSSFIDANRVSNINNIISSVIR
The experiment in a line: NMR titration; free unlabelled ColN-T added to 15N-labelled ColN-RP; 15N-1H HSQC chemical shift changes; spectra at 15°C. The note with it: both partners purified.

B1: ColN_(1–90) (ColN-T), isolated translocation domain of colicin N (domain or fragment)
chain: MGSNGADNAHNNAFGGGKNPGIGNTSGAGSNGSASSNRGNSNGWSWSNKPHKNDGFHSDGSYHITFHGDNNSKPKPGGNSGNRGNNGDGA
notes: colicin N (ColN), residues 1-90, the intrinsically disordered translocation (T-) domain; the whole toxin has 387 residues; 98-residue construct: residues 1-90 followed directly by Ser2His6; Used unlabelled in the NMR mixing experiment; also called T-domain; ColN-T(1-90)-SSHHHHHH; source: purified as previously described (20, 26), dialysed into 50 mM sodium phosphate, pH 7.6, 300 mM NaCl; not …
Consider B1, for which the binding result is given as “binds”.
